According to the RNAGym collection of RNA variant scans (doi:10.7554/elife.90254):

B1: LINE1-mini (parent)
chain: GGCAGAGCUCAACACAGCGUGGCAAAGUGGCUGUGGCUAGACUGCC

Variants of: B1
Assay: self-cleavage, relative activity (ratio to wild type); higher = more cleavage; in vitro, sequencing; the parent is a self-cleaving ribozyme

Variant | self-cleavage
CGCAGAGCGCAACACAGCGUGGCAAAGUGGCUGUGGCUAGACUGCC | 0.02
CGCAGAGCUCAACACAGCGUGGCAAAGUGGCUGUGCCUAGACUGCC | 0.01
GGCAUAGCUCAACACAGCGUGACAAAGUGGCUGUGGCUAGACUGCC | 0.16
GGCAGAGCUCGACACAGCGUAGCAAAGUGGCUGUGGCUAGACUGCC | 0.05
GGCAGACCUCAACACAGCGUGGCAAAGUGGCUGUGGUUAGACUGCC | 0.13
GGCAGAGCUCAACACAGCGUGGCAAAGUAGCUGUAGCUAGACUGCC | 0.23
GGCAUAGCUCAACACAGCGGGGCAAAGUGGCUGUGGCUAGACUGCC | 0.06
GGCAGAGUUCAACACAGCGUGGCAAAGUGACUGUGGCUAGACUGCC | 0.24
GGCAGAGCUCAACACAGCGUGGCAAAGUGGCUAUGGCUCGACUGCC | 0.08
GGCAGAGCUAAACACAGCGUGGCAAAGUUGCUGUGGCUAGACUGCC | 0.04
GGCGGAGCUCAACACAGCUUGGCAAAGUGGCUGUGGCUAGACUGCC | 0.56
GGCAGUGCUCAACACAGCUUGGCAAAGUGGCUGUGGCUAGACUGCC | 0.46
GGCAGAGCUCAACACAGCGUGACAAAGUGACUGUGGCUAGACUGCC | 1.24
GGCAGAGCUCAACACAGCGUGACAAAGUGUCUGUGGCUAGACUGCC | 0.96
UGCAGAGCUCAACACAGCGUGGCGAAGUGGCUGUGGCUAGACUGCC | 0.25
GGCAGAGCUCAACAAGGCGUGGCAAAGUGGCUGUGGCUAGACUGCC | 0.07
GGCAGACCUCAACACAGCGUGGCAAAGUGUCUGUGGCUAGACUGCC | 0.1
GGCAGAGCUCACCACAGCGUGGCAAAGUGGCUGUGGCUGGACUGCC | 0
GGUAGAGCUCAACACAGCGUGGCAAAGUGGCUGUGCCUAGACUGCC | 0.19
GGCAGAGCUUAACACAGCGUGGCAAAGCGGCUGUGGCUAGACUGCC | 0.13
GGCAGAGCUCAACACAGCGUGGUAAAGUGGUUGUGGCUAGACUGCC | 0.47
GGCAGAGCUCAACACAGCGUGGCAAAGUGGCUGUGGCCAGUCUGCC | 0.13
GGCAGAGCUCAACACAGCGUGGCAAAGUGGCUGUGGCUAGACCGCC | 0.14

Variant | self-cleavage
GGCAGAGCUCAACACAGAGUGGCAAAGUGGCUAUGGCUAGACUGCC | 0.03
GGCAGAGCUCAACACAGCGUGACAAAGUGGUUGUGGCUAGACUGCC | 0.49
GUCAGAGCUCAACACAGCGUGGCAAAGUGGCUGUGGCUAGAAUGCC | 0.06
GGCAGAGCUCAACACAGCGUGGCUAAGUGGCUGUGGCUUGACUGCC | 1.99
GGCUGAGCUCAACACAGCGUGGCAAAGUGGCUGUGGCUUGACUGCC | 0.11
GGCAGAGCGCAACACAGCGUGGCAAAGUGGCUGUGGCUAGACAGCC | 0.07
GGCAGAGCUCAAAACAGCGUGGCAAAGUGGCUGUGGCUAGACCGCC | 0.08
GGCAGAGCUCAACACAGCGCGGCAAAGUGGCUGUGGCUAGAUUGCC | 0.31
GGCAGAGCUCAACACAGCGGGGCAAAGUGGCUGUGGCUAGACAGCC | 0.03
GGCAGAGAUCAACACAUCGUGGCAAAGUGGCUGUGGCUAGACUGCC | 0.27
GGCAGAGCUCAACACAGCGUGGCAAAGUGGCUCUGGCUAGAUUGCC | 0.06
GGCAGAGCUCAACACAGCGUGGGAAAGUGGCUGUUGCUAGACUGCC | 0.11
GGCAGAGCUCAACACAGCUUGGCAAAGUGGCCGUGGCUAGACUGCC | 0.4
GGGAGAGCUCAACACAGCGUGGCAAAGUGGCUGUGGCUAGACUCCC | 0.93
GGCAGAGCUCAACACAGCGUGGCAAAGUGGCUGUGGCUAGACUGUG | 0.39
GACAGAGCUCAACACAGCGUGGCAAAGUGGCUGUGGGUAGACUGCC | 0.13
GGCAGAGCUCAACACAGCGUGGUUAAGUGGCUGUGGCUAGACUGCC | 0.84
GGCAGAGCUCAACACAGCGUGGCAAAGUGGCUGUGCCUACACUGCC | 0.08
GGCAGAGCUCAACACAGCGUGGCAAAGUCGCUGCGGCUAGACUGCC | 0.1
GGCAGAGCUCAACACAGCGUGACAAAGUGGCCGUGGCUAGACUGCC | 1.4
GUCCGAGCUCAACACAGCGUGGCAAAGUGGCUGUGGCUAGACUGCC | 0.07
GUCGGAGCUCAACACAGCGUGGCAAAGUGGCUGUGGCUAGACUGCC | 0.12
GGCAGAGCUCAACACGGCGUGGCGAAGUGGCUGUGGCUAGACUGCC | 0.16

Variant | self-cleavage
GGCAGAGCUCAACACGGCGUGGCAAAGUGGCUGUGGCUCGACUGCC | 0.12
GGCAGAGCUCAACACAGCGUCGCAAAGUGGCUGUGGCUAGACUGCU | 0.83
GGCACAGCUCAACACAGCAUGGCAAAGUGGCUGUGGCUAGACUGCC | 0.14
GGCAGAGCUCAAAACAGCGUGGCAAAGUGGUUGUGGCUAGACUGCC | 0.09
GGCGGAGCUCAAGACAGCGUGGCAAAGUGGCUGUGGCUAGACUGCC | 0.2
GGCAGAGCUAAACACAGCGUGGCAAAGUGGCUGUGGCUAGACUUCC | 0.03
GGCAGAGCUCAACACAGCGUGUCAAAGUGGCUGUGGCUCGACUGCC | 0.14
GGCAGAGCUCAACACAGCGAGGCAAAGUGGUUGUGGCUAGACUGCC | 0.17
GGCAGAGCUCAACAUAGCGUGGCAAAGUGGCUGUGACUAGACUGCC | 0.15
GGCAGAGCUUAACACAGCGUGGCAAAGUGGCUGUGGCUAGACUGAC | 0.15
GCCAGAGCUCAACACAGCGUGGCAAGGUGGCUGUGGCUAGACUGCC | 0.11
GGCAGUGCUGAACACAGCGUGGCAAAGUGGCUGUGGCUAGACUGCC | 0.06
GGCAGAGCUCAAUACAGCGUGGCAAAGUGGCUGUGGAUAGACUGCC | 0.27
GGCAGAGCUCAACACAGCGUGGAAAAGUGGCUGAGGCUAGACUGCC | 0.24
AGCAGAGCUCAACACAGAGUGGCAAAGUGGCUGUGGCUAGACUGCC | 1.81
GCCAGAGAUCAACACAGCGUGGCAAAGUGGCUGUGGCUAGACUGCC | 0.17
GGAAGAGCUUAACACAGCGUGGCAAAGUGGCUGUGGCUAGACUGCC | 0.19
GGCAGAGCUCAACACACCGUGGCAAAGUGGCUGUGGCUAGACUGAC | 0.16
GGCAGCGCUCAACACCGCGUGGCAAAGUGGCUGUGGCUAGACUGCC | 0.1
GGCAGAGCUCAACUCAGCGUGGCAAAGCGGCUGUGGCUAGACUGCC | 0.35
GGCAGAGCUCAACACAGCGUGGCAAAGGGGCUGUGGCUAGAUUGCC | 0.31
GGCAGGGCUCAACACAGCGUGGCAAAGUGACUGUGGCUAGACUGCC | 0.19
GGCAGAGCUCAACGCAGCGUGGCAAAGUGGCUGUGGCUAGACUGCG | 0.14

Variant | self-cleavage
GGCAGAGCUCCACACAGCGUGGCAAAGUGGCUGAGGCUAGACUGCC | 0.02
GGCAGAGCUCAACACAGAGUGGCAAAAUGGCUGUGGCUAGACUGCC | 1.47
GUCAGAGCUGAACACAGCGUGGCAAAGUGGCUGUGGCUAGACUGCC | 0.02
GGCAGAGCUCAACACAGCGUGGCAGAGUGGCUGUGACUAGACUGCC | 0.15
GGCAGAGCUCAACACAGCGUGGCAAAUUGGCUGUGGCUAGACUGCC | 0.83
CGCAGAGCUCAACACAGCGUGGCAAAGUGGCUGUGGCUCGACUGCC | 0.04
GGCAGAUCUCAACACAGCGUGGUAAAGUGGCUGUGGCUAGACUGCC | 0.06
GGCAGAGCUCAACACAGCGUGGCACAGUGACUGUGGCUAGACUGCC | 0.44
GGCAGAGCUCAACCCAGCGUGGCAACGUGGCUGUGGCUAGACUGCC | 0.16
GGCAGAGCUCCACACAGCGUGGCAAAGUGGCUGUAGCUAGACUGCC | 0.03
GGCAGAGCUCAACACAGCGUGACAAAGUGGCUGUGGCUAGAUUGCC | 0.7
GGCAGAGCUCAACGCAGCGUGGCAAACUGGCUGUGGCUAGACUGCC | 0.61
GGCUGAGCUCAACACAGCGUGGCAAAGUGGCUGUGGCUAGUCUGCC | 0.12
GGCAGAGCCCAACACAGCGUGGCAAAGUGGCUGUUGCUAGACUGCC | 0.03
GGCAGAGCUCAACACAGCGUGGCAAAGUGGCAGUGGCUAGCCUGCC | 0.07
GGCAGAGCUCAACACAACGUGGCAAAGUGGCUGUGGCUAAACUGCC | 0.06
GGCAGAGCCCAACACAGCGUGGCAAAGUGGCUGUGGUUAGACUGCC | 0.04
GGCAGAGCUCAACACAGCGUGGCAAAGUGGAUGUGGCUAGAAUGCC | 0.04
GGCAGAGCUCAAAACAGCGUGGCAAAGUGGCUGUGGCUAGACUUCC | 0.12
GGCACAGCUCAACACAGCGUGGCAAAGUGGCUGUGGCGAGACUGCC | 0.03
AGCAGAGCUCAACACAGCGUGGCAAAGUGGCUGUGGAUAGACUGCC | 0.07
GGCAGAUCUCAACACAGCGAGGCAAAGUGGCUGUGGCUAGACUGCC | 0.06
GGCAGAGCUCACCACAGCGUGGCAAAGUCGCUGUGGCUAGACUGCC | 0.01

Variant | self-cleavage
GGCAGAGCUCAACGCAGCGUGGCAAAGGGGCUGUGGCUAGACUGCC | 0.3
GGCAGGGCUCAACACAGCGUGGCAAACUGGCUGUGGCUAGACUGCC | 0.07
GGCGGAGCUCAACACAGCGUGGCAAAGUGGAUGUGGCUAGACUGCC | 0.12
GGCAGAGCUCGACACAGCGUGGCAAAGAGGCUGUGGCUAGACUGCC | 0.03
GGCAGAGCUGAACACAGCCUGGCAAAGUGGCUGUGGCUAGACUGCC | 0.06
GGCAGAGGUCAACACAGCGUGGCAAAGUGGCUGUGUCUAGACUGCC | 0.07
GGCAGAGCUCAACACAGCGUGGCAAAGUGGCUGUGGCUAUACCGCC | 0.15
GGCAGAGCGCAACACAGCGUGGCAAAGUGGCUGUGGCUAGACUGGC | 0.21
GGCAGAGCUCAACACACCGUGGCAAAGUGGCUGUGGCUAGACUGCG | 0.54
GGCAGAGCUAAACACAGCGGGGCAAAGUGGCUGUGGCUAGACUGCC | 0.03
GGCAGAUCUCAACACAGCGUGGCGAAGUGGCUGUGGCUAGACUGCC | 0.06
GGCAGAGCUCAACACAGCGUGCCAAAGUGGCUGUAGCUAGACUGCC | 0.14
GGCAGAGCUCGACACAGCGUGGCAAAGUGGCUGUGGCUAAACUGCC | 0.03
GGCAGAGCUCAACACAGCCUGGCAAAGUUGCUGUGGCUAGACUGCC | 0.54
GGCAGAGCUCAACACAGCGUGGCAAAGUGGCUUUGGCUCGACUGCC | 0.07
GGCAGAGCUCAACACAGCCUGGCGAAGUGGCUGUGGCUAGACUGCC | 0.53
GGCAGAGCUCAACACCGCGUGGCAAGGUGGCUGUGGCUAGACUGCC | 0.02
GGCAGACCUCAACACAGCGUGGCAAAGUGGCUCUGGCUAGACUGCC | 0.08
GGCAGAGCUCAACACAGCGUGGCAAAGUUGCUGAGGCUAGACUGCC | 0.37
GGCAGAGCCCAACACAGCGUGGCAAAGUGGCUGUGGCUAGACUGAC | 0.05
